Assay results from US20020173621A1, “Method for producing dimerized polypeptide fusions” (ZymoGenetics, Inc., published 2002).

T1: tetrameric PDGF β-receptor analog (purified from pSDL114+pSDL113 co-transfected cells) (human)
T1 heavy: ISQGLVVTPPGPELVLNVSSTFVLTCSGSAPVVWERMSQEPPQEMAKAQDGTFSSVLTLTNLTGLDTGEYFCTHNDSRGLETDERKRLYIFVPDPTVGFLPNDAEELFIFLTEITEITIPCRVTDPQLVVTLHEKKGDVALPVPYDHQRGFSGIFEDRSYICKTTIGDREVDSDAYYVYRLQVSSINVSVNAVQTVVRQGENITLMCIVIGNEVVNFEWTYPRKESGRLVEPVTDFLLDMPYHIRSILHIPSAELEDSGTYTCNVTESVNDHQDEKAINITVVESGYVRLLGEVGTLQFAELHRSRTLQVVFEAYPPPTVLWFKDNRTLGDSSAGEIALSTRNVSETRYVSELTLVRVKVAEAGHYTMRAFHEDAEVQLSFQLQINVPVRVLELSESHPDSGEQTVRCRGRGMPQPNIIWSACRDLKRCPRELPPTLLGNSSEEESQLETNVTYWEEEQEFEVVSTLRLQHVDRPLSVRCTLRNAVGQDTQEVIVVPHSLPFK
T1 light: T1 heavy

B1: PDGF-BB (ligand)
chain: SLGSLTIAEPAMIAECKTRTEVFEISRRLIDRTNANFLVWPPCVEVQRCSGCCNNRNVQCRPTQVQLRPVQVRKIEIVRKKPIFKKATVTLEDHLACKCETVAAARPVT

Tests used:
[1] = target: tetrameric PDGF β-receptor analog (purified from pSDL114+pSDL113 co-transfected cells) (human); test: saturation binding, analog plated at 24.3 ng/ml on goat anti-human IgG coated wells
[2] = target: tetrameric PDGF β-receptor analog (purified from pSDL114+pSDL113 co-transfected cells) (human); test: saturation binding, analog plated at 12.1 ng/ml on goat anti-human IgG coated wells
[3] = target: T1, tetrameric PDGF β-receptor analog …; test: solid phase radioreceptor competition binding assay, analog plated at 48.6 ng/ml, unlabeled PDGF-BB against 125I-labeled PDGF-BBTyr
Experimental: In a solid phase radioreceptor competition binding assay (RRA), the wells of 96-well microtiter plates were coated with 100 μl of 2 μg/ml affinity purified goat anti-human IgG (Cappel Labs) diluted in 0.1 M Na₂HCO₃, pH 9.6. After an eighteen hour incubation at 4° C., the wells were washed once with ELISA C. The wells were blocked by incubation for 2 hours at 37° C. with 175 μl/well ELISA B. […] The unbound receptor was removed, and the test wells were incubated with increasing concentrations of serially diluted, unlabeled PDGF-BB (diluted in binding media. Following a two hour incubation at room temperature, the wells were washed three times with binding media. One hundred microliters of 5 ng/ml ¹²⁵I-labeled PDGF-BBTyr (Example 18.F.) was added to each well, and the plates were incubated for an additional two hours at room temperature. The wells were washed three times with binding media followed by a 5 minute incubation with 100 μl/well of 0.1 M citrate, pH 2.5. The samples were harvested and counted in a gamma counter.

Molecule	half-maximal binding [1]	half-maximal binding [2]	IC50 [3]
PDGF-BBTyr (PDGF-BB mutant molecule having a tyrosine replacing the phenylalanine at position 23) (from UniProt P01127) (ligand)	0.82 ng/mL	0.8 ng/mL	
B1			8 ng/mL
